# In patent US10300107B2, “Compositions and methods for CaMKII inhibitors and uses thereof” (THE REGENTS OF THE UNIVERSITY OF COLORADO, priority 2007, dated 2019):
# Legend:
# [1] = target: T1, CaM dissociation from CaMKII (Homo sapiens, UniProt Q9UQM7); assay: TA-CaM dissociation from CaMKII; assay type: binding; settings: 5 μM; 150 nM CaMKII, 30 nM TA-CaM
# T1 construct: made in house; host or cells: baculovirus/Sf9 cells (CaMKII)
# Method: TA-CaM dissociation was assessed by increased TA-CaM (30 nM) fluorescence after dissociation from CaMKII or its CaM-binding domain (CBD) (150 nM) during a chase with unlabeled CaM (60 μM). Buffer contained 50 mM Hepes pH 7.4, 150 mM KCl, 2 mM MgCl2, 2 mM MgADP, 2 mM CaCl2, and 0.1 mg/ml BSA. Fluorescence was measured in a time scan (1 sec samples) at 365 nm excitation and 415 nm emission wavelength on a spectro-fluorometer (Fluorolog3; Horiba Jobin Yvon) and was corrected for photobleach (FIG. 16).
# [2] = tested on: CaMKII T-site mutants W237R and 1205K; assay: Kinase assay with GFP-CaMKIIα T-site mutants; assay type: biochemical; settings: substrate syntide2
# Text: In another example, FIG. 3. […] FIG. 3A represents a model of CaMKII kinase domain (Rosenberg et al., 2005) with the substrate binding S-site (indicated), the T286-region binding T-site (indicated), and the regulatory region (shown as ribbon). The arrow indicates the proposed orientation of CN21a binding to the T-site, when the regulatory region is displaced after activation. […] Results are normalized to maximal kinase activity without inhibitor. Error bars show s.e.m. […] Bound CaMKII was eluted and detected by Western blot.
# CaMKII activity assays. Standard CaMKII assays were done for 1 min at 30° C. previously described, with 20 nM CaMKII (subunit, not holoenzyme concentration), 50 mM PIPES pH 7.2, 0.1 mg/ml BSA, 10 mM MgCl2, 100 μM [γ-^32P] ATP (˜1 Ci/mmol), 1 mM CaCl2, 1-2 μM CaM, and 30-60 μM AC2 peptide (or syntide2). The reactions were spotted onto Whatman P81 phosphocellulose paper rectangles (˜2×2.5 cm). To remove free radioactivity, the paper rectangles were rinsed and washed for 30 min under agitation in 0.5% phosphoric acid or water. […] Radioactivity of the bound peptides was quantified in a Beckman 6000TA scintillation counter by the Cherenkov method. Any changes of the standard protocol were done as indicated. For assays of the GFP-CaMKIIα mutants, kinase amounts were normalized by GFP fluorescence in the extract, and total protein was adjusted with Cos-7 extracts.
molecule,measurement,setting,value
"CaM-KIIN: natural CaMKII inhibitor protein expressed in brain (protein, UniProt Q7Z7J9 1-78, looked up) Calcium/calmodulin-dependent …: MSEVLPYGDEKLSPYGDGGDVGQIFSCRLQDTNNFFGAGQNKRPPKLGQIGRSKRVVIEDDRIDDVLKNMTDKAPPGV",CaM dissociation from CaMKII,[1],slowed down CaM dissociation from CaMKII
same,activity of CaMKII T-site mutants W237R and 1205K compared to GFP-CaMKIIα wild type,[2],significantly less affected
